From publication PMC3078060 (Molecular Biology of the Cell, 2011)

T1: His6-Vps3 (S. cerevisiae, UniProt P23643 1-1011)
T1 sequence: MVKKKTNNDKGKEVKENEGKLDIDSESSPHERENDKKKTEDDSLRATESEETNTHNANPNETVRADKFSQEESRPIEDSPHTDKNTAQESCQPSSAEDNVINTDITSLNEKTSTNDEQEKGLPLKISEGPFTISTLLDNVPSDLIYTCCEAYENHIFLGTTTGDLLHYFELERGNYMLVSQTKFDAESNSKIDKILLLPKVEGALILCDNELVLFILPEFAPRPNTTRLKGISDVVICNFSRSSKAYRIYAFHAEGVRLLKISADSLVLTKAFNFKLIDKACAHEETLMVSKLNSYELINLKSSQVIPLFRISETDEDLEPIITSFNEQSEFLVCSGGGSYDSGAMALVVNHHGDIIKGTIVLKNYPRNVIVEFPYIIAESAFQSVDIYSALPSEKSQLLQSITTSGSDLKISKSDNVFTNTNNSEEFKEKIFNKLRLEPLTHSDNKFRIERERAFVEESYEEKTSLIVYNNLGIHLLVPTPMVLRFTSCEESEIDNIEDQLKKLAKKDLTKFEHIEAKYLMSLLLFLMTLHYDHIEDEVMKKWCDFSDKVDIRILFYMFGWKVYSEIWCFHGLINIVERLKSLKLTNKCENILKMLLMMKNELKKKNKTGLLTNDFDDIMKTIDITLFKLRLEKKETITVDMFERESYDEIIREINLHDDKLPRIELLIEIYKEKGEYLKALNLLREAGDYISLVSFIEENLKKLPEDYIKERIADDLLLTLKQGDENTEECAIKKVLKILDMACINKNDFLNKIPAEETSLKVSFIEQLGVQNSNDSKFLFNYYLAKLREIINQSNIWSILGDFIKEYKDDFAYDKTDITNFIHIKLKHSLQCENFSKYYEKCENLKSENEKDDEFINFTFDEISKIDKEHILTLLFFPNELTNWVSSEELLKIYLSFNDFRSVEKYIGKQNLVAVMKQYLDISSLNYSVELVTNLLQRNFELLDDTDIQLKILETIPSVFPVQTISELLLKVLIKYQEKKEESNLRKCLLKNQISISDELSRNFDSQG

T2: His6-Vps39–860Δ (S. cerevisiae, UniProt Q07468 1-860)
T2 sequence: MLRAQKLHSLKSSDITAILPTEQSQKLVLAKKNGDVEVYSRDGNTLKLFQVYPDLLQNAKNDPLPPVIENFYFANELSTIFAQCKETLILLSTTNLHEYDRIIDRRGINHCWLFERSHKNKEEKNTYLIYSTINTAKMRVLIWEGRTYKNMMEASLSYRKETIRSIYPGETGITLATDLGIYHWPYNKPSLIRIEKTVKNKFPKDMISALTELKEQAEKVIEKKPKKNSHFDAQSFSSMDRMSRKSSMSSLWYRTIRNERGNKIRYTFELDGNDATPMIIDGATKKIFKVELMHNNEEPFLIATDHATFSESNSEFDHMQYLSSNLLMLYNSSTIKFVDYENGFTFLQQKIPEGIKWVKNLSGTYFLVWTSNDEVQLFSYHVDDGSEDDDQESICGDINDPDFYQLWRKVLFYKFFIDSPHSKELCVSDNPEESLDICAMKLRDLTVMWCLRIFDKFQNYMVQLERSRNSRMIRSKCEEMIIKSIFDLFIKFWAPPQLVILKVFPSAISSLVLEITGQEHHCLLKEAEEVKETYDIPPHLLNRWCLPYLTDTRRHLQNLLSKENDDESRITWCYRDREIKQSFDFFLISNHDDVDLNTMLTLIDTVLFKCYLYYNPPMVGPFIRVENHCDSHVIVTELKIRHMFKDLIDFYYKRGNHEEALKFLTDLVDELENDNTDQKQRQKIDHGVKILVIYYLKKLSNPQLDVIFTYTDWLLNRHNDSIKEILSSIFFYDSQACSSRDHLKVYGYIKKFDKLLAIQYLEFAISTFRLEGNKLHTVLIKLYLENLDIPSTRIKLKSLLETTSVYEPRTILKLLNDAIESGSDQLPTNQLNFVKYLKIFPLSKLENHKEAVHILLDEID

T3: His6-Vps41 (S. cerevisiae, UniProt P38959 1-992)
T3 sequence: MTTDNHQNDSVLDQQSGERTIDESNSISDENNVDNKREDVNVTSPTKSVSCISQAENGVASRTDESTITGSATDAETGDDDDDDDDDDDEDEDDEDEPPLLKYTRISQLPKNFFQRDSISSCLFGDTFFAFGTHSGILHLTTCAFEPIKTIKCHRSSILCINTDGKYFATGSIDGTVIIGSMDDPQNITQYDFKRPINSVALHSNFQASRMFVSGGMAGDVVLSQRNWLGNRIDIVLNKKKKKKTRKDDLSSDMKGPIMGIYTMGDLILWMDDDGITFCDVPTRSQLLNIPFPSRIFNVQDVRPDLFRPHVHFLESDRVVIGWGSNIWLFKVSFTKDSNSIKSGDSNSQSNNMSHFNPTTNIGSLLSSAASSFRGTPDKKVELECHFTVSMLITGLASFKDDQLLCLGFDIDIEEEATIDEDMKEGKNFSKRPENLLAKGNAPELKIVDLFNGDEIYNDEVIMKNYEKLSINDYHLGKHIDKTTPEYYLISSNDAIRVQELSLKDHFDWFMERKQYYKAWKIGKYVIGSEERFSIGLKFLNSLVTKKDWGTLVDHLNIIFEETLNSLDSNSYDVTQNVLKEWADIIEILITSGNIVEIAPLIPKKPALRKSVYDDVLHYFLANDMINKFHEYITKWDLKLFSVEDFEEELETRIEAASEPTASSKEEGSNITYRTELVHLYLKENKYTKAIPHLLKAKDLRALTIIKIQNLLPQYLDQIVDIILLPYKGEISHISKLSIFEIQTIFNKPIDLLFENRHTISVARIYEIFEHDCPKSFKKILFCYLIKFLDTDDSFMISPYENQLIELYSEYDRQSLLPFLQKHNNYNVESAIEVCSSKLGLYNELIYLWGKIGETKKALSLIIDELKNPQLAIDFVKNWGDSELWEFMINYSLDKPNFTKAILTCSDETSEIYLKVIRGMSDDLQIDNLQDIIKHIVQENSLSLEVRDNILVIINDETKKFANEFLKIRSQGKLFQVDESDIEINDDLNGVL


Experiments:
Assay in all cases: pull-down
His6-Vps3 = target: T1, His6-Vps3
His6-Vps39–860Δ = target: T2, His6-Vps39–860Δ
His6-Vps41 = target: T3, His6-Vps41

Row | Binder | binding result (His6-Vps3) | binding result (His6-Vps39–860Δ) | binding result (His6-Vps41)
1 | GST-Vps21 (natural protein) MNTSVTSIKLVLLGEAAVGKSSIVLRFVSNDFAENKEPTIGAAFLTQRVTINEHTVKFEIWDTAGQERFASLAPMYYRNAQAALVVYDVTKPQSFIKARHWVKELHEQASKDIIIALVGNKIDMLQEGGERKVAREEGEKLAEEKGLLFFETSAKTGENVNDVFLGIGEKIPLKTAEEQNSASNERESNNQRVDLNAANDGTSANSACSC | binds |  | 
2 | GST-Ypt7 (natural protein) MSSRKKNILKVIILGDSGVGKTSLMHRYVNDKYSQQYKATIGADFLTKEVTVDGDKVATMQVWDTAGQERFQSLGVAFYRGADCCVLVYDVTNASSFENIKSWRDEFLVHANVNSPETFPFVILGNKIDAEESKKIVSEKSAQELAKSLGDIPLFLTSAKNAINVDTAFEEIARSALQQNQADTEAFEDDYNDAINIRLDGENNSCSC |  | binds | binds
